Experimental data reported in doi:10.64898/2025.12.18.695077v1.

System: O=P(O)(OC[C@@H](O)CO)OC[C@@H](O)CO
Assay: purified protein
Conditions: co-substrate C22:6-CoA 100 uM, pH 7.4, 37 C, 0.05% LMNG

For “CLN8 (FLAG-STREP-tagged, purified from human Flp-In T-REx 293 cells) (Homo sapiens)”, the Km was 570 µM and the kcat was 0.8022 s⁻¹.
